Stoichiometry N and Kd data for two substances are collected here from publication PMC4299515.

The term stoichiometry N denotes a count of units in the complex or per binding partner. Broadly, the Kd is the equilibrium constant for the complex coming apart.

Assay [1] concerns the target full-length HP1β (heterochromatin protein 1 beta) (UniProt P83917). The assay is described as follows: AUC; sedimentation velocity, c(s) distribution, 8–30 μM protein, physiological ionic strength; no larger complexes than the dimer up to 30 μM.
For assay [2] the target is unchanged. The experiment in a line: AUC; sedimentation velocity at lower concentrations (two peaks in c(s)); KD from the relative molar fractions of monomer and dimer; dimer to monomers; physiological ionic strength.
Assay [3] addresses isolated chromoshadow-domain (CSD) of HP1β. The assay is described as follows: AUC; sedimentation velocity, c(s) distribution, 8–30 μM protein, physiological ionic strength; no larger complexes than the dimer up to 30 μM.

full-length HP1β (heterochromatin protein 1 beta), P83917 1-185 (natural protein; other documents disagree on this pair), sequence (P83917 whole entry): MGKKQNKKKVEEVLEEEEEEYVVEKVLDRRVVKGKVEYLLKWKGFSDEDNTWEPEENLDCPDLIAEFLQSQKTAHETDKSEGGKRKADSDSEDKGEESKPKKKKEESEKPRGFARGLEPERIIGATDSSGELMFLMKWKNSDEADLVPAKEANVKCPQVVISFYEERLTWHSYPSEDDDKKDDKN
isolated chromoshadow-domain (CSD) of HP1β (domain or fragment), sequence (P83916 whole entry, the tested form may be a part): as the sequence (P83917 whole entry) above

“full-length HP1β (heterochromatin protein 1 beta), P83917 1-185 (natural protein; other documents disagree on this pair)” displayed a stoichiometry N in assay [1] of 2. In assay [2], this substance returned a dissociation constant (Kd) of 1 to 2 µM.
In assay [3], “isolated chromoshadow-domain (CSD) of HP1β (domain or fragment)” showed a stoichiometry N of 2.
